The target of assay [1] is High affinity oncostatin M receptors on non-transfected COS-7 cells. The experiment in a line: Scatchard analysis of 125I-oncostatin M binding to non-transfected COS-7 cells (FIG. 3 experiment), phthalate oil separation.
The target of assay [2] is T1, Human gp130 encoded by plasmid B10G, expressed on COS-7 cells (human).
T1 sequence: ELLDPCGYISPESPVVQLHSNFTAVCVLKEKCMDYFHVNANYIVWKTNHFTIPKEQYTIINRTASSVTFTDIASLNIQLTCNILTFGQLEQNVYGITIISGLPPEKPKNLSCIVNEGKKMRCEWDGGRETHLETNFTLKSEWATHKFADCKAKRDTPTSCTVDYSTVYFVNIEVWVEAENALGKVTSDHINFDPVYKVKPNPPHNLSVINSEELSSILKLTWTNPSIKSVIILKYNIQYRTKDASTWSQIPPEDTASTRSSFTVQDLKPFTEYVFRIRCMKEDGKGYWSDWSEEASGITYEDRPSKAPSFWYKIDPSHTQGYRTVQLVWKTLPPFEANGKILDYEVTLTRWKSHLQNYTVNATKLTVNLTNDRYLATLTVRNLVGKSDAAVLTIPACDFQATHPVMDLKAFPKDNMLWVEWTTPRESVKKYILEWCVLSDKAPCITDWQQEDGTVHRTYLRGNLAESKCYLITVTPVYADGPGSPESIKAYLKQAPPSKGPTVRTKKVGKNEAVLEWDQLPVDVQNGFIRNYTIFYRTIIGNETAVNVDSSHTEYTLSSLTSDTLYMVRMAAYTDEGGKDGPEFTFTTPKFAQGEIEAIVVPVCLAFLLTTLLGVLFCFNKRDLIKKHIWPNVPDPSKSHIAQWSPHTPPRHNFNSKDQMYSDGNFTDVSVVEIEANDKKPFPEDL
Description: Scatchard analysis of 125I-oncostatin M binding to COS-7 cells transfected with B10G alone (FIG. 3 experiment), phthalate oil separation.

Assay [3] deals with Receptor comprising gp130 (B10G) and LIF-R (pHLIFR-65) co-expressed on COS-7 cells (human). The experiment in a line: Scatchard analysis of 125I-oncostatin M binding to COS-7 cells co-transfected with B10G and pHLIFR-65 (curve A of FIG. 2), phthalate oil separation.

Kd data for one molecule are collected here from patent US5262522.

B1: Oncostatin M (ligand, UniProt P13725 26-221, looked up, species assumed)
Oncostatin-M: AAIGSCSKEYRVLLGQLQKQTDLMQDTSRLLDPYIRIQGLDVPKLREHCRERPGAFPSEETLRGLGRRGFLQTLNATLGCVLHRLADLEQRLPKAQDLERSGLNIEDLEKLQMARPNILGLRNNIYCMAQLLDNSDTAEPTKAGRGASQPPTPTPASDAFQRKLEGCRFLHGYHRFMHSVGRVFSKWGESPNRSRR
modifications: 125I label in some uses
Regarding B1, the results for the Kd in assay [1], in assay [2] and in assay [3] were 0.36 nM, 7.7 nM and 0.24 nM, respectively.
